These results are taken from article PMC13189263.

For one assay, the target named is N6-I2 Ab (human). The experiment in a line: SPR.
The target in a further assay is N6-I3 Ab (human). The experiment in a line: SPR.

As to BG505 MD39.3 SOSIP trimer, the Kd in the assay with N6-I2 Ab (human) turned out to be 5.7 nM; in the assay with N6-I3 Ab (human) it was 3 nM.
